# Measured values reported in the DeepSol protein solubility set.
# Test: soluble on expression in E. coli; label from the status in PepcDB or PDB records
row,Sequence,soluble on expression in E. coli
1,MGSDKIHHHHHHMKPPIQLPLGVRLRDDATFINYYPGANAAALGYVERLCEADAGWTESLIYLWGKQGVGRSHLLQAATHRFQQRGEPAVYLPLAQLLDRGVELLDYLAQYELVCIDDLHVIAGKADWEEAMFHLFNRLRDSGRRLLLAASASPRELPIKLPDLKSRLTLALVFQMRGLSDEDKLRALQLRASRRGLHLTDEVGHFILTRGARSMSALFDLLERLDQASLQAQRKLTIPFLKETLGW,not soluble
2,MSLARANIDTDAILPKQFMKSIERTGFGVHLFDGFRYLDAGSLGMDCSRRPENPDFILNWPRYREASILLAGANFGCGSSREHAPWAIEQYGFRVLIASSFADIFRDNCFKNGLLPIVLASETMDRLFDEVSHQVGFELEVDLPRQTISCPAGWCIEFEMDSIRKAHLLEGIDEIGSTLSLSKKIGDFERARRQSHPWFFGAEGHHHHHH,not soluble
3,MKIYYEHDADLGFILGKKVAVLGFGSQGHAHALNLKDSGVDVRVGLRKGSRSWEKAEAAGLRVLPVAEAVREADVVMVLLPDEKQAQVYREEVEPNLKEGGALAFAHGFNVHFGQIKPRKDLDVWMVAPKGPGHLVRSEYQKGSGVPALVAVHQDASGSAFPTALAYAKAIGAARAGVIATTFKDETETDLFGEQAVLCGGLTRLIRAGFETLVEAGYPPEMAYFETVHEVKLIVDLIYEAGLKGMRYSISNTAEYGDYTRGDLAVPLEETKRRMREILRQIQSGEFAREWMLENQVGSPVLEANRKRWAAHPIEEVGSRLRAMMPFLKARVMEEVG,soluble
4,MVSLCKLFGVTKQAFYKYVDHSTDSSARERFVLEFVKRVRSKDPGIGGMKLWLMYRNEFGTSQAFVGRDCFCAILSKYKLTIRKRFRAPRTTDSSHHLPQYPDLTRTLLLEHPDQLWVSDITYITIWLPDGSYVFCYLSLVTDAYTKEIIGYCVGDTLGSCYTVEALEMAVRRIAAKEIKGLIHHSDRGVQYASADYIAILRHNGILPSMTEDGNPKDNAIAERVNGIIKNELLQGMRFSSIQEVRKAVATAVHFYNNERPHMSLDMLTPVQAGEMQGPIRKRWISYREKYLNVALA,not soluble
5,MGILKSLFTLGKSFVAQAEEAIDEAQGVRMLEQHIRDAKAELDKAGKSRVDLLARVKLSHDKLNDLRERKASLETRALAAMSKNVDAALLNEVAEEIARLENAILAEEQVLTNLEASRDAVEKAVTATGQRIAQFEQQLEVVKATEAMQRAQQAVTTSTVGAASNVSTAAESLKRLQTRQAERQARLDAAAQLEKVADGRDLDEKLAQAGIGATNKSNAQGVLARLQRQQGELEHHHHHH,not soluble
6,MSTAKAPTLPASIFRAYDIRGVVGDTLTAETAYWIGRAIGSESLARGEPCVAVGRDGRLSGPELVKQLIQGLVDCGCQVSDVGMVPTPVLYYAANVLEGKSGVMLTGSHNPPDYNGFKIVVAGETLANEQIQALRERIEKNDLASGVGSVEQVDILPRYFKQIRDDIAMAKPMKVVVDCGNGVAGVIAPQLIEALGCSVIPLYCEVDGNFPNHHPDPGKPENLKDLIAKVKAENADLGLAFDGDGDRVGVVTNTGTIIYPDRLLMLFAKDVVSRNPGADIIFDVKCTRRLIALISGYGGRPVMWKTGHSLIKKKMKETGALLAGEMSGHVFFKERWFGFDDGIYSAARLLEILSQDQRDSEHVFSAFPSDISTPEINITVTEDSKFAIIEALQRDAQWGEGNITTLDGVRVDYPKGWGLVRASNTTPVLVLRFEADTEEELERIKTVFRNQLKAVDSSLPVPF,soluble
7,AIAYRDRYPYYDGEVYDDTGVVFPENIERRPNGRRVIVEEPEDYGMPNDRGVEDEYDERNPFRGGHSMQPWNQSPFDHFDRLFETPFAGLDRGSFGGMFGNIEQSLRRLEEDFARGAGRGNAHVYSFSSKKHFGPEGEVYEESTTTTREGNRTEVRRHLKDSAAGNEEYAWKREIDGRGREVIRRRDGSGQEVTKENYYNLTPEERAQFEQQWRTLAREGLDWRGSEGNNASLPQLSDRSSWMEHDRNEHRGGLGGFFRKLFKHD,soluble
8,MIKFSIRGENIEVTEAIRDYVESKLTKIEKYFAKDQEIDARVNLKVYRERSSKVEVTIPLDSVTLRAEDVSQDMYGSIDLVVDKIERQIRKNKTKIAKKHREKVPTGQVFTTEFEAEEVDEIPEVQVVRTKNVTLKPMDVEEARLQMELLGHDFFIYTDSEDGATNILYRREDGNLGLIEAKLEHHHHHH,soluble
9,HMSSGSAGLSSLHRTYSQDCSFKNSMYHVGDYVYVEPAEANLQPHIVCIERLWEDSAGEKWLYGCWFYRPNETFHLATRKFLEKEVFKSDYYNKVPVSKILGKCVVMFVKEYFKLCPENFRDEDVYVCESRYSAKTKSFKKIKLWTMPVSSVRFVPRDVPLPVVRVASVFANTD,soluble
10,MINSSMQFDRILASQPGISLIAEKRITRSASYFPDHFPKRPVLPMTVLLECKLNLAKEFIARAKYDRAYRISELRKIKMNEFVHPGDVVVCQVKVKQQMDDELILSYRCEVDGKRVCVVDIVLIPKGKLEHHHHHH,not soluble
11,MSLRTASVIVDLPTRQTNQPFTYLIPDDLLDFNLLGHRVRVPFGKRNLMGYVVAVGQSERSDFQLKKIESIIDEKPVLNSEMLKLSEWLSNYVFSYRVQVIQTILPNAFKPKYLKGLKIVDQVPEKIKENIFLNNQEIEFLPKNYTSEQIKVINSLIRQGKIVQTTTIQKKNKGKKVKVLSNNLNDNDIATNLNKKSLSDSQKKLLIFLSGHRDGFFQVKELAEILDISKSTILTAEKKSWLKKSEVRMTRNPVKKIAVTKTNAVELNSDQKKVFNSVESAITKNENKTFLLEGITGSGKTEVYLQLIEKTIAQGKTALLLVPEIALTPQMIRLVKSRFLDSVALLHSGLSDGERLDQWEEIRDGKIKIVIGTRSAVFSPLTNIGLIIMDEEHETNYKQEGNPRYHARDIALWRAKYHQAVTLLGSATPSLESRARAQKGIFKLLTMNHRAVSGAKLPDVSIVDMREVWQKEHADNDFSPTLLKKIEERKENHEQTILLLNRRGFSSFVMCRNCGYVPRCPNCNLSLTLHMDSHSLKCHYCGYEEAIPKKCPVCGSPQIRYVGTGTEKIETKLNSLVNGIRVARLDQDTTKRKGSLEKILRDFGKGNYDVLLGTQMVAKGLDFPDVTLVGVINADIGLNLPDFRSGEKTFQLLTQVAGRSGRAGKTGEVIIQTFNPDNYAIKLAADQNYEGFYKTEMSIRHIADYSPYYYTIQVGIDGPDQFPASRAIDEVAEFIKPKLAKETIVLGPTPKAIAKLRNRYYFQIILKYKKDPNIESTLSELQTVFGEKLPKDIYLSIDRDPVSEGHHHHHH,soluble
12,MGSDKIHHHHHHIDQWIRRQHHPTGNPTATQNKVFIATQNQPLLMDTGEKKSPPPPTPPNPPVNHAIAPVAQHPQPMPIPHQVPSPAHGAAHGHPQAPPMYPGIGFAPGMLQLPQNMQTTIVYTPSMAYDNGHPAAQVN,not soluble
13,MVMVNFTAGKWISEPKVSEVTSEFVSITTEPKTDFWQRSYYGFRNENAPALLIDSKDNFTFTAKVSFAYQQLFDQCGLIIYLDNENWFKASIEYENQSFSRLGSVVTNLGYSDWATTDIPLPKEIWYRLSRRGPDFLIESSFDGLVFNQMRIFHLHRLGETTIEMGKCNPPLPTQKVVSFGVYACSPSESSFTAKFTEMSLEPCKWLAHLEHHHHHH,soluble
14,MGSDKIHHHHHHMLLTIDDVLTQEELAIARSMLARSAWVSGLVTAGTQAAQVKNNQQVQENDPQIVNLRRLVLGALNRNALFFTATLPEKIVPPFFNRYSGETNHYGFHVDNAMRLLPDGSGYVRTDVSATLFLSDPQEYDGGELVINDTFGQHGVKLQAGSMVIYPSSSIHQVTPVTRGERLACFMFIQSMVRNPDQRRLLYEMDMALLQLRQNIGETPAVVSLTGTYHNLLRQWADS,not soluble
15,MNIDSDIFKIQSNNVLPSRGKILISEPFLRDATFGRSVVLLIDHTEEGSMGLIINKQLPIFVNDIIKEFKYIENIPLYKGGPIATDTLFYLHTLADIPGAIPISKGLYLNGDFDEIKKYILQGNKVDRYIRFFLGYSGWESEQLSTELKENTWLVSKEENAYLMNGDTKDMWKQALEKLGSKYETWSRFPQVPTFNLEHHHHHH,soluble
16,MGSDKIHHHHHHMKTNTSNQTTPQLATIKLFAMGCHIQISLYTTRLSAQYSQMTIDQQVAFLTSDVQQRLAYWEHIFSRFDDTSELMRLNNRGDQWSEVSSELFEVLQHAIHFVLKTQGLVTPTLLQPLWAAGYKHSFETLPKISMPSLPFTGLSAPSNVQDTTSANHANQQIGRIQLRQLTDGQHQVYLPTGMALDLNGYVKGWCAMQLAEHISRVHDWHIPCLVDMGGDIAIGIPRDPIDKPVTWGVAVAKPYFANSKHVQNDEDVAILKLSSGAVATSGQDYRRWWHDGRWQHHLIHPHDSRPVTSDVLTATVLATDTMTAEVYAKYCLLLGVKVAMAWLNKYHIAALLIDTDNKVMATSAIRPHLLQPNVVKSNVMSI,not soluble
17,MGSDKIHHHHHHMIASPEPEYLTPEEYLQLEEASPIKHEYINGYAYAMAGATDAHVTVAGNLFVLLRNHVRGSGCRVYIADMKARIESLNRYYYPDVMVTCDQRDQETPNHKRFPCLIVEVLSNSTEAFDRGDKFVDYQEIETLKEYVLINTKRQRVECFKRGDHGLWILQSYTEQDKIFRLNSVDFEGAIAELYEDVIFEQTTL,not soluble
18,SLQAINPNWNVPKNIHAFTTTREGGVSLAPYLSFNLGDHVGDNKSAVKTNRTLLVEKFGLPQTPIFLTQTHSTRVIQLPYSGQNLEADAVYTNVPNQVCVVMTADCLPVLFTTTSGNEVAATHAGWRGLCDGVLEETVKYFQAKPEDIIAWFGPAIGPKAFQVGIDVVEKFVVVDEKAKLAFQPDAIEEGKYLSNLYQIATQRLNNLGITQIYGGNHCTFNEKEKFFSYRRDNQTGRMASVIWFE,soluble
19,MLWTENITLRFGGVTALDNVSVEVRRGEILGIIGPNGAGKTSLLNVITGVYKPQRGRVYFKGRDITGLKPHQRITLGLSRTFQHSELFHSMTVLENIMVRLHPWTRGSILEKALWAFRAKRWEVEARERAEHVIDLLDLHEHRHSPIGALPPGIQKKVDLAGALAQNPEVVLMDEPMAGLSKEEKEDIVRAIIETSETMHTTMVLIEHDMEVVTDVCDRVVVMDYGKVIFEGPPHEAVADERVRKAYLGE,soluble
20,MAHHHHHHMSSAHKPTTQEAINFFKQYREKFQRSSSGGNSPSQNSVNASPQQNIVTQVQQVDVVPDLTTRSIIPMNRRNGTTTTRLDLLRKSPTNCSPCLVQEVEIKPLLPPLPFASVPKVTLVLDVDETLVHSTFQPSSDVVYDKVLLVPSEGKTYTVSVKYRPYLEDFLRFVSRRFEVVIFTASMRAYCDKLMDEIDPHGILGNLRLFREHCTFSERSYVKDLHRLGRDLRRVVILDNSPAAYSFQQRNAIPIKTWINDPKDRELFLLLPLLDRLAMCDSVYSELDPYNARGCDYL,not soluble
21,ALGVDKPREIAFEVLDRVRTGEAYANLVLPRLLSKHNLSGRDAAFATEITYGTLRNVGLLDEVIKAASGRELSDIDPEVLDVLRLGAYQVMFTRVEDHAAVDTSVKMVGGLKKFQATGFANAILRNITRKEPEQWLKELEPAEELARVAFRTAHPRWIA,not soluble
22,MGHHHHHHSHMTSFEDADTEETVTCLQMTVYHPGQLQCGIFQSISFNREKLPSSEVVKFGRNSNICHYTFQDKQVSRVQFSLQLFKKFNSSVLSFEIKNMSKKTNLIVDSRELGYLNKMDLPYRCMVRFGEYQFLMEKEDGESLEFFETQFILSPRSLLQENNWPPHRPIPEYGTYSLCSSQSSSPTEMDENES,not soluble
23,MHVIDLSYFVKIYRSKNKHFSVNFLRHLHRAGDLHLSGTTRCIYEDVIMKKCLTLLIATVLSGISLTAYAAQPMSNLDSGQLRPAGTVSATGASNLSDLEDKLAEKAREQGAKGYVINSAGGNDQMLGTATIYKLEHHHHHH,not soluble
